Among the data in publication PMC6913123 are Kd values, retold here.

The target in the data set is T1, DDX21 (Homo sapiens) (UniProt Q9NR30).
T1 sequence: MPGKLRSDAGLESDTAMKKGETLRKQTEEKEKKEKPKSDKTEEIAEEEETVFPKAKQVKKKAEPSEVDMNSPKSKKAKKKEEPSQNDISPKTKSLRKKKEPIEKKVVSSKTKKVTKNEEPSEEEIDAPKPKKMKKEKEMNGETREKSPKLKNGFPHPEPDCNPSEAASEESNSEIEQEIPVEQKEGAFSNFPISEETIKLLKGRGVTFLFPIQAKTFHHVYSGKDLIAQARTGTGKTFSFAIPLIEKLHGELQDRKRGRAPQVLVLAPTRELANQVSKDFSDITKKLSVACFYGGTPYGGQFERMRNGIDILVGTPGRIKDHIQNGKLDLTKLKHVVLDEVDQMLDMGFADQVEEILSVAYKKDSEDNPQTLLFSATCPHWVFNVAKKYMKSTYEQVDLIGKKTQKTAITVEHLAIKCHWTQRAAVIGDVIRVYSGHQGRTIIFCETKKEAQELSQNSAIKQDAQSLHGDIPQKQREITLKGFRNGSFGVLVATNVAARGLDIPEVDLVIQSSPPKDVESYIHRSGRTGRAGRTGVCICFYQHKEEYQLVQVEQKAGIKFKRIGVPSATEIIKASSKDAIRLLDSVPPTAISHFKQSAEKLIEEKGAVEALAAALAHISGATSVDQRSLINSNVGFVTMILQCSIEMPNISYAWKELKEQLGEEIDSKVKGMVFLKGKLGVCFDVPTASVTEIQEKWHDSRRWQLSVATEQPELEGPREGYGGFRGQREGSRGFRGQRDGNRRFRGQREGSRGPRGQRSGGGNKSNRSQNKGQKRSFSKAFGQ
As to the kind of experiment: EMSA.

What is called Kd is the free concentration of one partner at which half of the binding sites on the other are occupied at equilibrium, for simple one-to-one binding. High values mean weaker binding, low ones tighter binding. Sequence “AGUGGCAUAAACAUGGGCUUUGGCGUCAGACAGCCCUGAGCGGGGCCCCAUUGCCCCACCCCCGAGGAAGGCGAGGGGGGGUGGCAGGGGGCUGCGGAAAGGGGCUGGGCUGGGUUGGGCUGUCUGCAGCUCUAGUCCAGGAGGCUGAGACUUCGAGAGGGACUUAGAGAAGGCAGACGCAUCCCGAACUCGCUGGAGGACAAGGCUCAGCUCUUGCCAGGCCAAAUUGAGAC [MAGED2 TV2 5'-UTR]” had a dissociation constant Kd of 100 nM.
